The test system of this series is T1, His6-WblI (Streptomyces lividans TK24), ORF:202723bd.
T1 sequence: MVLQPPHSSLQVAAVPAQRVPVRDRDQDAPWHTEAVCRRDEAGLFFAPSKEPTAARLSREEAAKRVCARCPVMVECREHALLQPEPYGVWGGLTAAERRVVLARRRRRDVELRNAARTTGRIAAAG
Put plainly: EMSA. To be noted: 10 mM Tris-HCl pH 7.5, 50 mM KCl, 1 mM DTT, 20 µl, room temperature 15 min, 50 pmol probe, 5% native PAGE in 45 mM Tris-HCl pH 8.3, 45 mM boric acid. (In general: A gel shift assay detects complexes by their altered migration in electrophoresis.)

Take “AGCCAGTGGCGATAAGGTTCCGTCCGGTCCGGGGCCGTCCTCGGGCAGTAACGCCGACGGCGGGGCCGTGGCCCTGTCCGGCTCGTCGGCTTCAACGGAACTCATGGCGTCCCCCGGGTCCTCGACTATTGGTCCACGAACGACCACCGTTCTACAATGGAACGGTGGTCGCGTCAAGAAACGGTGGCCCGTTCATGCCATACGATGAGGAGCACGTGTCGCTTATCGCCACTGGCT (double strand) [actII-1/actII-2 intergenic region]”: the binding result is reported as “binds”.

Values taken from PMC5373594.
